{"source": "paper PMC5370183", "about": "“Kinetics of the LOV domain of ZEITLUPE determine its circadian function in Arabidopsis” (eLife, 2017)", "proteins": {"B1": {"name": "ZTL 16–165 (domain or fragment, Arabidopsis thaliana, UniProt Q94BT6 16-165, looked up)", "chain": "SLADDEEGGLFPGGGPIPYPVGNLLHTAPCGFVVTDAVEPDQPIIYVNTVFEMVTGYRAEEVLGGNCRFLQCRGPFAKRRHPLVDSMVVSEIRKCIDEGIEFQGELLNFRKDGSPLMNRLRLTPIYGDDDTITHIIGIQFFIETDIDLGP", "notes": "source: purified protein"}, "B2": {"name": "WT ZTL 29–165 (ZEITLUPE LOV domain construct ZTL-S) (domain or fragment, Arabidopsis thaliana, UniProt Q94BT6 29-165, looked up)", "chain": "GGPIPYPVGNLLHTAPCGFVVTDAVEPDQPIIYVNTVFEMVTGYRAEEVLGGNCRFLQCRGPFAKRRHPLVDSMVVSEIRKCIDEGIEFQGELLNFRKDGSPLMNRLRLTPIYGDDDTITHIIGIQFFIETDIDLGP", "notes": "also called ZTL LOV domain"}, "B3": {"name": "ZTL 29–165 R95A (domain or fragment, Arabidopsis thaliana, UniProt Q94BT6 29-165, looked up)", "chain": "B2 chain with R67A"}, "B4": {"name": "ZTL 29–165 G46S:G80R (domain or fragment, Arabidopsis thaliana, UniProt Q94BT6 29-165, looked up)", "chain": "B2 chain with G18S, G52R"}, "B5": {"name": "ZTL 29–165 G80R (domain or fragment, Arabidopsis thaliana, UniProt Q94BT6 29-165, looked up)", "chain": "B2 chain with G52R", "notes": "Tested by SEC in dark and light state"}, "B6": {"name": "ZTL 29–165 V48I:G80R (domain or fragment, Arabidopsis thaliana, UniProt Q94BT6 29-165, looked up)", "chain": "B2 chain with V20I, G52R", "notes": "Crystallised in the dark state (5SVV) and in the light state with the C4a adduct between C82 and FMN (5SVW)"}, "B7": {"name": "FKF1 28–174 (FLAVIN-BINDING, KELCH REPEAT, F-BOX 1 LOV domain) (domain or fragment, Arabidopsis thaliana, UniProt Q9C9W9 28-174, looked up)", "chain": "NDGIEEQVEDEKLPLEVGMFYYPMTPPSFIVSDALEPDFPLIYVNRVFEVFTGYRADEVLGRNCRFLQYRDPRAQRRHPLVDPVVVSEIRRCLEEGIEFQGELLNFRKDGTPLVNRLRLAPIRDDDGTITHVIGIQVFSETTIDLDR", "notes": "source: purified protein"}}, "key": {"[1]": {"target": "the molecule itself", "experiment": "SEC; Superdex 200 10/300 analytical column in stabilizing buffer (50 mM Tris pH 7 or 50 mM Hepes pH 8 with 100 mM and 10% glycerol); apparent MW against standards; G80R in dark and light state"}, "[2]": {"target": "the molecule itself", "experiment": "SEC; R95A at 130 µM and 13 µM, dark and light state; elution not concentration dependent; dimer to monomers"}}, "note": "Residue numbers refer to the chain shown, from its start. Numbers in names are those of the source.", "data": [{"protein": "B1", "values": [{"measurement": "stoichiometry N", "setting": "[1]", "value": 2}]}, {"protein": "B2", "values": [{"measurement": "stoichiometry N", "setting": "[1]", "value": 2}]}, {"protein": "B3", "values": [{"measurement": "Kd", "setting": "[2]", "value": "< 200", "unit": "nM"}, {"measurement": "stoichiometry N", "setting": "[2]", "value": 2}]}, {"protein": "B4", "values": [{"measurement": "stoichiometry N", "setting": "[1]", "value": 2}]}, {"protein": "B5", "values": [{"measurement": "stoichiometry N", "setting": "[1]", "value": 2}]}, {"protein": "B6", "values": [{"measurement": "stoichiometry N", "setting": "[1]", "value": 2}]}, {"protein": "B7", "values": [{"measurement": "stoichiometry N", "setting": "[1]", "value": 2}]}]}
